According to US20190134153A1, “IMMUNOMODULATORY EFFECT OF INHALED KINASE INHIBITOR PEPTIDES IN LUNG” (MOERAE MATRIX, INC., priority 2017, published 2019):

Columns and labels:
Experiment in all cases: Kinase Profiling Assay
Conditions in all cases: 100 μM
CHK2(I157T)(h) = CHK2(I157T)(h) (Homo sapiens, UniProt O96017, I157T); format: biochemical
cKit(h) = cKit(h) (Homo sapiens, UniProt P10721); format: biochemical
EGFR(T790M, L858R)(h) = EGFR(T790M, L858R)(h) (Homo sapiens, UniProt P00533, L858R/T790M); format: biochemical
Flt3(D835Y)(h) = Flt3(D835Y)(h) (Homo sapiens, UniProt P36888, D835Y); format: biochemical
Itk(h) = molecular target: T1, Itk(h) (Homo sapiens, UniProt Q08881); format: biochemical
T1 sequence (Q08881 1-620): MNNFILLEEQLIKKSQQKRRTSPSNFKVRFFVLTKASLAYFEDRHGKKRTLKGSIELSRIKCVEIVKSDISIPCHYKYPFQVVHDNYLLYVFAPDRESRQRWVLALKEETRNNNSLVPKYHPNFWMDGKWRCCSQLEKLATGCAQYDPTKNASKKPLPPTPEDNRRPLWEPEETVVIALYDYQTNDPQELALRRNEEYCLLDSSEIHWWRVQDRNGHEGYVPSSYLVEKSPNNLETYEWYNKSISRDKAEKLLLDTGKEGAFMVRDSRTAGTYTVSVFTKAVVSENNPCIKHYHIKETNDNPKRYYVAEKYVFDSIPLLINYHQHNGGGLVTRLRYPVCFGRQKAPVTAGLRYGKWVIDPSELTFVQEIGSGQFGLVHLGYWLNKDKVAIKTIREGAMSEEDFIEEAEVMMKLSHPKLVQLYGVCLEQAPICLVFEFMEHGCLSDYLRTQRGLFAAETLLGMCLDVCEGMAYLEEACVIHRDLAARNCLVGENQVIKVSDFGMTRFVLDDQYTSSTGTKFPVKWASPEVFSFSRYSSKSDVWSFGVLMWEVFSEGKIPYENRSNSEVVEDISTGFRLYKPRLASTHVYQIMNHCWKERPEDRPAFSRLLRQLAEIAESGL

MAPKAP-K2(h) = MAPKAP-K2(h) (Homo sapiens, UniProt P49137); format: biochemical
Met(Y1248H)(h) = Met(Y1248H)(h) (Homo sapiens, UniProt P08581, Y1230H); format: biochemical
MLCK(h) = format: biochemical, human
NEK7(h) = NEK7(h) (Homo sapiens, UniProt Q8TDX7); format: biochemical
PKCβI(h) = PKCβI(h) (Homo sapiens, UniProt P05771); format: biochemical
PKCι(h) = molecular target: T2, PKCι(h) (Homo sapiens, UniProt P41743); format: biochemical
T2 sequence (P41743 1-596): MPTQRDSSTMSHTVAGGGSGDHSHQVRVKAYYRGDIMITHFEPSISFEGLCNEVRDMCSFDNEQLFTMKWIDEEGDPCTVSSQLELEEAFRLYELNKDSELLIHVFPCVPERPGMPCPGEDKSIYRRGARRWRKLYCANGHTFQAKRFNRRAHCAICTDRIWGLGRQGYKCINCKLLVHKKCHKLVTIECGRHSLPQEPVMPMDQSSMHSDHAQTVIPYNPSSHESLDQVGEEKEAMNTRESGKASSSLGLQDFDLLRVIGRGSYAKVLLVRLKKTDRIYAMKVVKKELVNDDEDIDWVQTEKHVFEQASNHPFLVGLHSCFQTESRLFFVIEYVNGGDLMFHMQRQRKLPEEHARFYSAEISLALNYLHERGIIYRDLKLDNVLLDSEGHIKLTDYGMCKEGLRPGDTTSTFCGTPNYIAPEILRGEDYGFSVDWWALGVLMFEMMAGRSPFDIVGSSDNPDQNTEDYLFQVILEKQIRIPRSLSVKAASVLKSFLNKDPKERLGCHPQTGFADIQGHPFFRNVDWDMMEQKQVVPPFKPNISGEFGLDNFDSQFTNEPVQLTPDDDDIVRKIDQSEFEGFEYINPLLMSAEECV

PKCμ(h) = molecular target: T3, PKCμ(h) (Homo sapiens, UniProt Q15139); format: biochemical
T3 sequence (Q15139 1-912): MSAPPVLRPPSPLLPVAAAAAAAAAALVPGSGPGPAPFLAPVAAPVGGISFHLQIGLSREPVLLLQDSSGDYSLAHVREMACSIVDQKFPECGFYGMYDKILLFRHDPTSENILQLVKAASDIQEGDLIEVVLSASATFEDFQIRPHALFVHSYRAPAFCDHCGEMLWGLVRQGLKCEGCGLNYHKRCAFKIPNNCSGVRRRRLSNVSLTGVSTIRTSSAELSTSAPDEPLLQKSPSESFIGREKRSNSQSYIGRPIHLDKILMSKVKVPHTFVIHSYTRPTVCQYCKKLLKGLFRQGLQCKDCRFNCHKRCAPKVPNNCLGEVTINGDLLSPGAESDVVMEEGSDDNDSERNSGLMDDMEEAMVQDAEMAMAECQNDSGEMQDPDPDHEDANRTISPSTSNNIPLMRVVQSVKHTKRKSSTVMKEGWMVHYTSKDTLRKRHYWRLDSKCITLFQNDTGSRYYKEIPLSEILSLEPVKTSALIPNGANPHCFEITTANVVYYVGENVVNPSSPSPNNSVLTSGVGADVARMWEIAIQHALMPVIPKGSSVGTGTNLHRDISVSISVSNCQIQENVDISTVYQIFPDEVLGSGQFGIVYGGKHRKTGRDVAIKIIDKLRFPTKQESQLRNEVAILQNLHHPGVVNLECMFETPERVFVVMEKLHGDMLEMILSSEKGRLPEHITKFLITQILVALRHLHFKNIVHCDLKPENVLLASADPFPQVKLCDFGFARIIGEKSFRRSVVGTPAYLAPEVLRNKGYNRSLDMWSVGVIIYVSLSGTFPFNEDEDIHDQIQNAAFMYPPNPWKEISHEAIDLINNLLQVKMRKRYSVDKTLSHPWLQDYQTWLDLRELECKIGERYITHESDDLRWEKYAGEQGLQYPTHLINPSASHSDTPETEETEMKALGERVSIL

PKCθ(h) = PKCθ(h) (Homo sapiens, UniProt Q04759); format: biochemical
Syk(h) = Syk(h) (Homo sapiens, UniProt P43405); format: biochemical

Chain of CHK2(I157T)(h) (O96017 whole entry I157T): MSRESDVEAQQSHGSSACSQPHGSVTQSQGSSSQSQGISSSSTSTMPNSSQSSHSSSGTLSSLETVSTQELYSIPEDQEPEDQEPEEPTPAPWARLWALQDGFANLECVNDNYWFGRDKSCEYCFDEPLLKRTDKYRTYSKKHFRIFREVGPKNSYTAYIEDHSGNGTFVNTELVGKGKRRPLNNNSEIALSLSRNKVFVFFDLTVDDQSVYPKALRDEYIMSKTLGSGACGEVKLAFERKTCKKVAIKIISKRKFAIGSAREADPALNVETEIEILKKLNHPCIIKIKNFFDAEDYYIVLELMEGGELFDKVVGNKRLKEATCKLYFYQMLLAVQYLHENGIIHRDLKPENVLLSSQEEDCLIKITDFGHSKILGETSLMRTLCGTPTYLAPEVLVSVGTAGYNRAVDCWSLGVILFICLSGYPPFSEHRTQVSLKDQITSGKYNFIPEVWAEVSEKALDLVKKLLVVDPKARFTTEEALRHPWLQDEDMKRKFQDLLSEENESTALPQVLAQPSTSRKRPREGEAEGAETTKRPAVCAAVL
Chain of PKCβI(h) (P05771 whole entry): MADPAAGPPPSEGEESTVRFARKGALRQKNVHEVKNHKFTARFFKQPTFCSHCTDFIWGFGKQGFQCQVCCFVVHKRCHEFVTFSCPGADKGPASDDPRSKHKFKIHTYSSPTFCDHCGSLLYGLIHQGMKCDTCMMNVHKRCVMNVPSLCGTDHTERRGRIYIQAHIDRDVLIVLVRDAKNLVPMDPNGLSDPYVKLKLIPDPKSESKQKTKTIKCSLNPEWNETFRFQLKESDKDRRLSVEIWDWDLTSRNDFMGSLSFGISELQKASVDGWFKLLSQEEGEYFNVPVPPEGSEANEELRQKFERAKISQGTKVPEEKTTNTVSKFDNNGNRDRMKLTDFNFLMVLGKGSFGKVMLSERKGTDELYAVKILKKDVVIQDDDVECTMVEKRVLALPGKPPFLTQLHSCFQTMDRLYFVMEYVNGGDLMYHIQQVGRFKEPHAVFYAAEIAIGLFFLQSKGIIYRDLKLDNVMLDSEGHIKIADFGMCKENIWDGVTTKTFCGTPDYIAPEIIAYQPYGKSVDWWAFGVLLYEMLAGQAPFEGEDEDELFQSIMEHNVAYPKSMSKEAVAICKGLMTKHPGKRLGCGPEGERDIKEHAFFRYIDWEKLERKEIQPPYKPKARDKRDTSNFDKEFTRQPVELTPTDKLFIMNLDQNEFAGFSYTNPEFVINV
Chain of NEK7(h) (Q8TDX7 whole entry): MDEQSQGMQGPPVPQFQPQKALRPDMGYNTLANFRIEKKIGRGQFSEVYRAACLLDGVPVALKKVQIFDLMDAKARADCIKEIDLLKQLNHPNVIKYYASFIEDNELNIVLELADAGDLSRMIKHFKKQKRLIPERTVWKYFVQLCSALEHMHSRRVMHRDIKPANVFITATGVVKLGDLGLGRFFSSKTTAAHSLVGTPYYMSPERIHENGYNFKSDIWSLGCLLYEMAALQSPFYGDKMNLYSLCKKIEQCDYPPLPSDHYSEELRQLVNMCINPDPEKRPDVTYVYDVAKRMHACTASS
Chain of PKCθ(h) (Q04759 whole entry): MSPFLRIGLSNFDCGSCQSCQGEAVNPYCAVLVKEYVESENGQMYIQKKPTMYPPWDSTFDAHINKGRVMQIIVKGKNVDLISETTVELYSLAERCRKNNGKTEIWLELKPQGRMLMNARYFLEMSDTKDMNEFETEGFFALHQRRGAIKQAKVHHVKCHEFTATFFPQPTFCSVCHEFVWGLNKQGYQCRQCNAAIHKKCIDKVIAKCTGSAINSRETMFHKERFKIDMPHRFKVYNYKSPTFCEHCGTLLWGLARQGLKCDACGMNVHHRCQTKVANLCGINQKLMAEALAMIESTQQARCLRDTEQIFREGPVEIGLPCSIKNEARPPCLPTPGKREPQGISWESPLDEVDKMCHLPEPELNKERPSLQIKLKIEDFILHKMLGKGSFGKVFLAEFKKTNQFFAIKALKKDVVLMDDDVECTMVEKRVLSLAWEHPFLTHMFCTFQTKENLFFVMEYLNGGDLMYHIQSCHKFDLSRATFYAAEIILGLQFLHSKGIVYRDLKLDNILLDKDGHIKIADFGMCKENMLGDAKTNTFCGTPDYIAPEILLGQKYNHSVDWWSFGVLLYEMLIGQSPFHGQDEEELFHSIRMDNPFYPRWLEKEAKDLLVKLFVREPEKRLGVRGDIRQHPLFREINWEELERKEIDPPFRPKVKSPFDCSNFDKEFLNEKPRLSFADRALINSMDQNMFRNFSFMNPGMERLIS
Chain of MAPKAP-K2(h) (P49137 whole entry): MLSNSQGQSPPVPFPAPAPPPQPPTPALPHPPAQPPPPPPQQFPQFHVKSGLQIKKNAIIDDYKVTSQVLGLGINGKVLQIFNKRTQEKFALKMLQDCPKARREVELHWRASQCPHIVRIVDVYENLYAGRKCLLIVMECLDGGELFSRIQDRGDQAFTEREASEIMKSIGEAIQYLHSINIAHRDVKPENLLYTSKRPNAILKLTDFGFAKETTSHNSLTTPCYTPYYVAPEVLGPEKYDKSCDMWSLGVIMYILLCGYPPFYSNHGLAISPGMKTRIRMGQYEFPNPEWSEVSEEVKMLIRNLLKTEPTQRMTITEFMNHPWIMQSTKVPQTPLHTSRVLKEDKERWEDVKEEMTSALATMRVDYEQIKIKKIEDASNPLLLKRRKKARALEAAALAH

## HRRIKAWLKKIKALARQLGVAA [MMI-0500]
CHK2(I157T)(h)
  % activity: 3%
cKit(h)
  % activity: 45%
EGFR(T790M, L858R)(h)
  % activity: 53%
Flt3(D835Y)(h)
  % activity: 65%
Itk(h)
  % activity: 7%
MAPKAP-K2(h)
  % activity: 9%
Met(Y1248H)(h)
  % activity: 126%
MLCK(h)
  % activity: 0%
NEK7(h)
  % activity: 89%
PKCβI(h)
  % activity: 1%
PKCι(h)
  % activity: 7%
PKCμ(h)
  % activity: 10%
PKCθ(h)
  % activity: 62%
Syk(h)
  % activity: 5%

## YARAAARQARAKALNRQLGVA [MMI-0200]
CHK2(I157T)(h)
  % activity: 85%
cKit(h)
  % activity: 110%
EGFR(T790M, L858R)(h)
  % activity: 108%
Itk(h)
  % activity: 98%
MAPKAP-K2(h)
  % activity: 35%
Met(Y1248H)(h)
  % activity: 153%
MLCK(h)
  % activity: 103%
NEK7(h)
  % activity: 96%
PKCβI(h)
  % activity: 98%
PKCι(h)
  % activity: 97%
PKCμ(h)
  % activity: 73%
PKCθ(h)
  % activity: 101%
Syk(h)
  % activity: 36%

## KAFAKLAARLYRKALARQLGVAA [MMI-0400]
CHK2(I157T)(h)
  % activity: 41%
cKit(h)
  % activity: 43%
EGFR(T790M, L858R)(h)
  % activity: 78%
Flt3(D835Y)(h)
  % activity: 71%
Itk(h)
  % activity: 63%
MAPKAP-K2(h)
  % activity: 5%
Met(Y1248H)(h)
  % activity: 63%
MLCK(h)
  % activity: 1%
NEK7(h)
  % activity: 87%
PKCβI(h)
  % activity: 78%
PKCι(h)
  % activity: 46%
PKCμ(h)
  % activity: 14%
PKCθ(h)
  % activity: 76%
Syk(h)
  % activity: 9%

## FAKLAARLYRKALARQLGVAA [MMI-0300]
CHK2(I157T)(h)
  % activity: 43%
cKit(h)
  % activity: 53%
EGFR(T790M, L858R)(h)
  % activity: 85%
Flt3(D835Y)(h)
  % activity: 80%
Itk(h)
  % activity: 77%
MAPKAP-K2(h)
  % activity: 5%
MLCK(h)
  % activity: 2%
NEK7(h)
  % activity: 84%
PKCβI(h)
  % activity: 78%
PKCι(h)
  % activity: 68%
PKCμ(h)
  % activity: 22%
PKCθ(h)
  % activity: 88%
Syk(h)
  % activity: 24%
